Several values for one entry are separate records, joined by “and”; a condition that tells them apart may be missing. Identical values can stand only once.
What was measured:
[1] = biological target: the molecule itself; assay: cryo-EM structure; single-particle cryo-EM of purified 5-HT3AR in saposin lipoprotein (Salipro) with brain polar lipids, 25 mM HEPES, 125 mM NaCl, pH 7.4; apo, with serotonin (uncaged RuBi-5-HT, 200 uM), and with 100 uM 5-HT + 2 mM CaCl2; 2D and 3D classification without imposed symmetry
[2] = biological target: the molecule itself; assay: native gel or EMSA; blue native PAGE, 5-20% gradient gel, 4 °C; 10 ug solubilised 5-HT3AR incubated 30 min with 0 to 10 mM SDS; BSA oligomers as size markers

B1: murine wild-type serotonin 5-HT3A receptor (receptor, mouse (murine), UniProt P23979 24-489, looked up)
chain: SRRRATQARDTTQPALLRLSDHLLANYKKGVRPVRDWRKPTTVSIDVIMYAILNVDEKNQVLTTYIWYRQYWTDEFLQWTPEDFDNVTKLSIPTDSIWVPDILINEFVDVGKSPNIPYVYVHHRGEVQNYKPLQLVTACSLDIYNFPFDVQNCSLTFTSWLHTIQDINITLWRSPEEVRSDKSIFINQGEWELLEVFPQFKEFSIDISNSYAEMKFYVIIRRRPLFYAVSLLLPSIFLMVVDIVGFCLPPDSGERVSFKITLLLGYSVFLIIVSDTLPATAIGTPLIGVYFVVCMALLVISLAETIFIVRLVHKQDLQRPVPDWLRHLVLDRIAWILCLGEQPMAHRPPATFQANKTDDCSGSDLLPAMGNHCSHVGGPQDLEKTPRGRGSPLPPPREASLAVRGLLQELSSIRHFLEKRDEMREVARDWLRVGYVLDRLLFRIYLLAVLAYSITLVTLWSIWHYS
modifications: densities resembling N-linked glycosylation at N82, N148 and N164
notes: 5-HT3A receptor subunit, mouse, wild type, full length; The same subunit is found as a pentamer and as a tetramer (4 or 5 copies); The intracellular domain is not modelled in the tetramer structures; also called 5-HT3R; 5-HT3AR-Salipro; source: purified (C12E9 solubilisation, Streptactin, SEC) and reconstituted in saposins with porcine brain polar lipids; also unpurified in cell-derived plasma …
**Q.** B1 was tested. Which “stoichiometry N” value [1] did it give?
**A.** The value was 4 and 5.

**Q.** What about the “stoichiometry N” value [2] of the same protein?
**A.** Its value is 3 and 2.
